# Results published in patent US20250186541A1, “DLL3 TARGETING PEPTIDES AND CONSTRUCTS THEREOF” (MARIANA ONCOLOGY INC., priority 2023, published 2025).
# Numbered stars: 1 amine (or outer) side, 2 acyl side, 3 side chain; on linkers, the order of the positions; unused ones are H or OH. Bridge positions count the residues as written; N and C are the ends. Square brackets hold non-standard residues; d marks the D form. Peptide text beside a SMILES is read from it. * marks the point of attachment. X2 = O=C(O)CN1CCN(CC(=O)O)CCN(CC(=O)N[C@@H](CCCCN*)C(=O)O)CCN(CC(=O)O)CC1; Ala(piperidin-4-yl) = O=C([C@H](CC1CCN([*:3])CC1)N[*:1])[*:2]; DOTA = O=C(O)CN1CCN(CC(=O)O)CCN(CC(=O)*)CCN(CC(=O)O)CC1; Phe(4-CH2NH2) = NCc1ccc(C[C@H](N)C(=O)O)cc1; 1Nal = N[C@@H](Cc1cccc2ccccc12)C(=O)O; 2Nal = N[C@@H](Cc1ccc2ccccc2c1)C(=O)O; Phe(2-Me) = Cc1ccccc1C[C@H](N)C(=O)O; tBuAla = CC(C)(C)C[C@H](N)C(=O)O; dAllylGly = C=CC[C@@H](N)C(=O)O; AllylGly = C=CC[C@H](N)C(=O)O; Chg = N[C@H](C(=O)O)C1CCCCC1; αMeP = C[C@@]1(C(=O)O)CCCN1; NMeC = CN[C@@H](CS)C(=O)O
# T1: human DLL3 (Homo sapiens, UniProt Q9NYJ7)
# T1 construct: biotin (biotinylated)
# T1 sequence (Q9NYJ7 27-618): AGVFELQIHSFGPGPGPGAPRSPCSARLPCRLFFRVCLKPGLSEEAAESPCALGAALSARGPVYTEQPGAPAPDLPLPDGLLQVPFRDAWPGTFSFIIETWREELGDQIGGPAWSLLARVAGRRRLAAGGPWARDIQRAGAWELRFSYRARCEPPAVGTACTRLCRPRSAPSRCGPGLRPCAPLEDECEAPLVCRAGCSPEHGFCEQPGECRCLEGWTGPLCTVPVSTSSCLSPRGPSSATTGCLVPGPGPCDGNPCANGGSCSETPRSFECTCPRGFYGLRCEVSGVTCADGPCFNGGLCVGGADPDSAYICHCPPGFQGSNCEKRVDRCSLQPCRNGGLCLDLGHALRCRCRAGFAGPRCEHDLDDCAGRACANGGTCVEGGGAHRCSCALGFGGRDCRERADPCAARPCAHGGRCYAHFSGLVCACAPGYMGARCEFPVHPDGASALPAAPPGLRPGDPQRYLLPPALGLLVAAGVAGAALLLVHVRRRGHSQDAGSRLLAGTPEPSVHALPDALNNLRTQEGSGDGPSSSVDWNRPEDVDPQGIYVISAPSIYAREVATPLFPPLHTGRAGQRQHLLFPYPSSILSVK
# T2: Biotinylated human DLL3 (human, UniProt Q9NYJ7 27-492, biotinylated (site not stated))
# T2 construct: also called Delta-like ligand 3; Delta Like Canonical Notch Ligand 3
# T2 sequence (looked up): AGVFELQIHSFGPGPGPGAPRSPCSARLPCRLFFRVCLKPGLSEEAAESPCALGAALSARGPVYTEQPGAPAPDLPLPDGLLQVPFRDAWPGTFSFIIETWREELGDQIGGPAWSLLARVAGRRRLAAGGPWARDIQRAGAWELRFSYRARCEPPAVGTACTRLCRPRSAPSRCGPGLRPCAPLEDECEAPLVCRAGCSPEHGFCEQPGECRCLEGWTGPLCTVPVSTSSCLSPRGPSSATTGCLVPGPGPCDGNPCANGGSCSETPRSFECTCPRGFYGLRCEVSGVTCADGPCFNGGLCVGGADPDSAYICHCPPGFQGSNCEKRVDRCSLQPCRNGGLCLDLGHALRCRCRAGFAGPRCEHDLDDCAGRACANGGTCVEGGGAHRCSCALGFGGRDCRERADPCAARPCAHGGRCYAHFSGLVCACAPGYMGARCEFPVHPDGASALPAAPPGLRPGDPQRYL
# B1: Cpd #22 (peptide)
# peptide: Ac-MSDCALQWNCPFD-NH2
# modifications: disulfide 4-10
# SMILES: CSCC[C@H](NC(C)=O)C(=O)N[C@@H](CO)C(=O)N[C@@H](CC(=O)O)C(=O)N[C@H]1CSSC[C@@H](C(=O)N2CCC[C@H]2C(=O)N[C@@H](Cc2ccccc2)C(=O)N[C@@H](CC(=O)O)C(N)=O)NC(=O)[C@H](CC(N)=O)NC(=O)[C@H](Cc2c[nH]c3ccccc23)NC(=O)[C@H](CCC(N)=O)NC(=O)[C@H](CC(C)C)NC(=O)[C@H](C)NC1=O
# B2: Cpd #12 (peptide)
# peptide: Ac-MSDCW[dA]QWNCPFD-NH2
# modifications: disulfide 4-10
# SMILES: CSCC[C@H](NC(C)=O)C(=O)N[C@@H](CO)C(=O)N[C@@H](CC(=O)O)C(=O)N[C@H]1CSSC[C@@H](C(=O)N2CCC[C@H]2C(=O)N[C@@H](Cc2ccccc2)C(=O)N[C@@H](CC(=O)O)C(N)=O)NC(=O)[C@H](CC(N)=O)NC(=O)[C@H](Cc2c[nH]c3ccccc23)NC(=O)[C@H](CCC(N)=O)NC(=O)[C@@H](C)NC(=O)[C@H](Cc2c[nH]c3ccccc23)NC1=O
# B3: Cpd #19 (peptide)
# peptide: Ac-ASDCWLQWNCPFD-NH2
# modifications: disulfide 4-10
# SMILES: CC(=O)N[C@@H](C)C(=O)N[C@@H](CO)C(=O)N[C@@H](CC(=O)O)C(=O)N[C@H]1CSSC[C@@H](C(=O)N2CCC[C@H]2C(=O)N[C@@H](Cc2ccccc2)C(=O)N[C@@H](CC(=O)O)C(N)=O)NC(=O)[C@H](CC(N)=O)NC(=O)[C@H](Cc2c[nH]c3ccccc23)NC(=O)[C@H](CCC(N)=O)NC(=O)[C@H](CC(C)C)NC(=O)[C@H](Cc2c[nH]c3ccccc23)NC1=O
# B4: Cpd #9 (peptide)
# peptide: Ac-M[dA]DCWLQWNCPFD-NH2
# modifications: disulfide 4-10
# SMILES: CSCC[C@H](NC(C)=O)C(=O)N[C@H](C)C(=O)N[C@@H](CC(=O)O)C(=O)N[C@H]1CSSC[C@@H](C(=O)N2CCC[C@H]2C(=O)N[C@@H](Cc2ccccc2)C(=O)N[C@@H](CC(=O)O)C(N)=O)NC(=O)[C@H](CC(N)=O)NC(=O)[C@H](Cc2c[nH]c3ccccc23)NC(=O)[C@H](CCC(N)=O)NC(=O)[C@H](CC(C)C)NC(=O)[C@H](Cc2c[nH]c3ccccc23)NC1=O
# B5: Cpd #10 (peptide)
# peptide: Ac-MS[dA]CWLQWNCPFD-NH2
# modifications: disulfide 4-10
# SMILES: CSCC[C@H](NC(C)=O)C(=O)N[C@@H](CO)C(=O)N[C@H](C)C(=O)N[C@H]1CSSC[C@@H](C(=O)N2CCC[C@H]2C(=O)N[C@@H](Cc2ccccc2)C(=O)N[C@@H](CC(=O)O)C(N)=O)NC(=O)[C@H](CC(N)=O)NC(=O)[C@H](Cc2c[nH]c3ccccc23)NC(=O)[C@H](CCC(N)=O)NC(=O)[C@H](CC(C)C)NC(=O)[C@H](Cc2c[nH]c3ccccc23)NC1=O
# B6: Cpd #24 (peptide)
# peptide: Ac-MSDCWLAWNCPFD-NH2
# modifications: disulfide 4-10
# SMILES: CSCC[C@H](NC(C)=O)C(=O)N[C@@H](CO)C(=O)N[C@@H](CC(=O)O)C(=O)N[C@H]1CSSC[C@@H](C(=O)N2CCC[C@H]2C(=O)N[C@@H](Cc2ccccc2)C(=O)N[C@@H](CC(=O)O)C(N)=O)NC(=O)[C@H](CC(N)=O)NC(=O)[C@H](Cc2c[nH]c3ccccc23)NC(=O)[C@H](C)NC(=O)[C@H](CC(C)C)NC(=O)[C@H](Cc2c[nH]c3ccccc23)NC1=O
# B7: Cpd #21 (peptide)
# peptide: Ac-MSACWLQWNCPFD-NH2
# modifications: disulfide 4-10
# SMILES: CSCC[C@H](NC(C)=O)C(=O)N[C@@H](CO)C(=O)N[C@@H](C)C(=O)N[C@H]1CSSC[C@@H](C(=O)N2CCC[C@H]2C(=O)N[C@@H](Cc2ccccc2)C(=O)N[C@@H](CC(=O)O)C(N)=O)NC(=O)[C@H](CC(N)=O)NC(=O)[C@H](Cc2c[nH]c3ccccc23)NC(=O)[C@H](CCC(N)=O)NC(=O)[C@H](CC(C)C)NC(=O)[C@H](Cc2c[nH]c3ccccc23)NC1=O
# B8: Cpd #27 (peptide)
# peptide: Ac-MSDCWLQWNCAFD-NH2
# modifications: disulfide 4-10
# SMILES: CSCC[C@H](NC(C)=O)C(=O)N[C@@H](CO)C(=O)N[C@@H](CC(=O)O)C(=O)N[C@H]1CSSC[C@@H](C(=O)N[C@@H](C)C(=O)N[C@@H](Cc2ccccc2)C(=O)N[C@@H](CC(=O)O)C(N)=O)NC(=O)[C@H](CC(N)=O)NC(=O)[C@H](Cc2c[nH]c3ccccc23)NC(=O)[C@H](CCC(N)=O)NC(=O)[C@H](CC(C)C)NC(=O)[C@H](Cc2c[nH]c3ccccc23)NC1=O
# Molecular target: T1, human DLL3
# Assay: Affinity determination by Surface Plasmon Resonance (SPR), Biacore, 1:1 binding model
# Settings: biotinylated human DLL3 on streptavidin chip, 25° C.; NB = nonbinding
# Procedure, shortened: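 SPR with biotinylated human DLL3 captured on a streptavidin chip, with a reference surface subtracted. Samples were injected at several concentrations at 100 μL/min in phosphate buffer with 137 mM NaCl, 2.7 mM KCl, 0.05% P20 and 2% DMSO. Kinetic and affinity constants came from a 1:1 binding fit.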
row,Molecule,Kd [nM]
1,"CC(=O)N[C@@H](CC1CCNCC1)C(=O)N[C@@H](CO)C(=O)N[C@@H](CC(=O)O)C(=O)N[C@@H]1C/C=C/C[C@@H](C(=O)N2CCC[C@@]2(C)C(=O)N[C@@H](Cc2ccccc2)C(=O)N[C@@H](CC(=O)O)C(N)=O)NC(=O)[C@H](CC(N)=O)NC(=O)[C@H](Cc2ccc3ccccc3c2)NC(=O)[C@H](Cc2ccc(CNC(=O)CN3CCN(CC(=O)O)CCN(CC(=O)O)CCN(CC(=O)O)CC3)cc2)NC(=O)[C@H](CC(C)(C)C)NC(=O)[C@H](Cc2cccc3ccccc23)NC1=O [compound 210, Ac-[3-(4-piperidinyl)-Ala]-S-D-D-AllyG(4)-(1Nal)-(t-Bu-Ala)-[PAF(DOTA)]-(2Nal)-N-AllyG(4)-(aMe-P)-F-D-CONH2] (Ac-[Ala(piperidin-4-yl)]SD[dAllylGly][1Nal][tBuAla][Phe(4-CH2NH2)](DOTA)[2Nal]N[AllylGly][αMeP]FD-NH2; staple (E) 4-10)",> 100
2,"CC(=O)N[C@H](C)C(=O)N[C@@H](CO)C(=O)N[C@@H](CC(=O)O)C(=O)N[C@H]1CSSC[C@@H](C(=O)N2CCC[C@@]2(C)C(=O)N[C@@H](Cc2ccccc2)C(=O)N[C@@H](CC(=O)O)C(N)=O)NC(=O)[C@H](CC(N)=O)NC(=O)[C@H](Cc2ccc3ccccc3c2)NC(=O)[C@H](CC2CCN(C(=O)CN3CCN(CC(=O)O)CCN(CC(=O)O)CCN(CC(=O)O)CC3)CC2)NC(=O)[C@H](CC(C)(C)C)NC(=O)[C@H](Cc2cccc3ccccc23)NC1=O [Cpd #157, Ac-(D-Ala)-S-D-C(3)-(1Nal)-(t-Bu-Ala)-[3-(4-piperidinyl-DOTA)-Ala]-(2Nal)-N-C(3)-(aMe-P)-F -D-CONH2] (Ac-[dA]SDC[1Nal][tBuAla][Ala(piperidin-4-yl)](DOTA)[2Nal]NC[αMeP]FD-NH2; disulfide 4-10)",0.18
3,"CC(=O)N[C@H](C(=O)N[C@@H](CO)C(=O)N[C@@H](CC(=O)O)C(=O)N[C@H]1CSSC[C@@H](C(=O)N2CCC[C@H]2C(=O)N[C@@H](Cc2ccccc2)C(=O)N[C@@H](CC(=O)O)C(=O)N[C@H](CCCCNC(=O)CN2CCN(CC(=O)O)CCN(CC(=O)O)CCN(CC(=O)O)CC2)C(N)=O)N(C)C(=O)[C@H](CC(N)=O)NC(=O)[C@H](Cc2c[nH]c3ccccc23)NC(=O)[C@H](CCC(N)=O)NC(=O)[C@H](CC(C)C)NC(=O)[C@H](Cc2cccc3ccccc23)NC1=O)C1CCCCC1 [compound 115, Ac-(Chg)-S-D-C(3)-(1Nal)-L-Q-W-N-(NMe-Cys)-P-F-D-D-Lys(DOTA)-CONH2] (Ac-[Chg]SDC[1Nal]LQWN[NMeC]PFD[dK](DOTA)-NH2; disulfide 4-10)",> 100
4,"CC(=O)N[C@H](C)C(=O)N[C@@H](CO)C(=O)N[C@@H](CC(=O)O)C(=O)N[C@H]1CSSC[C@@H](C(=O)N2CCC[C@@]2(C)C(=O)N[C@@H](Cc2ccccc2C)C(=O)N[C@@H](CC(=O)O)C(N)=O)NC(=O)[C@H](CC(N)=O)NC(=O)[C@H](Cc2ccc3ccccc3c2)NC(=O)[C@H](CCC(=O)NCCCC[C@H](NC(=O)CN2CCN(CC(=O)O)CCN(CC(=O)O)CCN(CC(=O)O)CC2)C(=O)O)NC(=O)[C@H](CC(C)(C)C)NC(=O)[C@H](Cc2cccc3ccccc23)NC1=O [Cpd #153, Ac-(D-Ala)-S-D-C(3)-(1Nal)-(t-Bu-Ala)-[Glu(εLys(OH)-(DOTA))]-(2Nal)-N-C(3)-(aMe-P)-(2Me-F)-D-CONH2] (Ac-[dA]SDC[1Nal][tBuAla]E(X2)[2Nal]NC[αMeP][Phe(2-Me)]D-NH2; disulfide 4-10)",0.51

# Molecular target: T2, Biotinylated human DLL3
# Assay: SPR, biotin-hDLL3 on SA chip
# Settings: not given
Molecule,Kd [nM],binding result
Ac-[dA]SDCWLQWNCPFD-NH2 (disulfide 4-10) [Cpd #8],8.5,–
B1,–,no binding
B2,63,–
B3,21,–
B4,35.1,–
B5,116,–
B6,4.9,–
B7,80,–
B8,–,no binding
